Data taken from the supplement of paper PMC10065799, “High-throughput profiling of sequence recognition by tyrosine kinases and SH2 domains using bacterial peptide display” (eLife, 2023).

How the values were obtained:
MERTK = MERTK (UniProt Q12866); test: phosphorylation enrichment, bacterial display (enrichment ratio); higher = better substrate or ligand; peptides without Tyr show the background
c-Abl (mouse) = test: as above
FGFR3 = FGFR3 (UniProt P22607); test: as above
Jak2 = Jak2 (UniProt O60674); test: as above
Chain of Jak2 (O60674 whole entry, looked up): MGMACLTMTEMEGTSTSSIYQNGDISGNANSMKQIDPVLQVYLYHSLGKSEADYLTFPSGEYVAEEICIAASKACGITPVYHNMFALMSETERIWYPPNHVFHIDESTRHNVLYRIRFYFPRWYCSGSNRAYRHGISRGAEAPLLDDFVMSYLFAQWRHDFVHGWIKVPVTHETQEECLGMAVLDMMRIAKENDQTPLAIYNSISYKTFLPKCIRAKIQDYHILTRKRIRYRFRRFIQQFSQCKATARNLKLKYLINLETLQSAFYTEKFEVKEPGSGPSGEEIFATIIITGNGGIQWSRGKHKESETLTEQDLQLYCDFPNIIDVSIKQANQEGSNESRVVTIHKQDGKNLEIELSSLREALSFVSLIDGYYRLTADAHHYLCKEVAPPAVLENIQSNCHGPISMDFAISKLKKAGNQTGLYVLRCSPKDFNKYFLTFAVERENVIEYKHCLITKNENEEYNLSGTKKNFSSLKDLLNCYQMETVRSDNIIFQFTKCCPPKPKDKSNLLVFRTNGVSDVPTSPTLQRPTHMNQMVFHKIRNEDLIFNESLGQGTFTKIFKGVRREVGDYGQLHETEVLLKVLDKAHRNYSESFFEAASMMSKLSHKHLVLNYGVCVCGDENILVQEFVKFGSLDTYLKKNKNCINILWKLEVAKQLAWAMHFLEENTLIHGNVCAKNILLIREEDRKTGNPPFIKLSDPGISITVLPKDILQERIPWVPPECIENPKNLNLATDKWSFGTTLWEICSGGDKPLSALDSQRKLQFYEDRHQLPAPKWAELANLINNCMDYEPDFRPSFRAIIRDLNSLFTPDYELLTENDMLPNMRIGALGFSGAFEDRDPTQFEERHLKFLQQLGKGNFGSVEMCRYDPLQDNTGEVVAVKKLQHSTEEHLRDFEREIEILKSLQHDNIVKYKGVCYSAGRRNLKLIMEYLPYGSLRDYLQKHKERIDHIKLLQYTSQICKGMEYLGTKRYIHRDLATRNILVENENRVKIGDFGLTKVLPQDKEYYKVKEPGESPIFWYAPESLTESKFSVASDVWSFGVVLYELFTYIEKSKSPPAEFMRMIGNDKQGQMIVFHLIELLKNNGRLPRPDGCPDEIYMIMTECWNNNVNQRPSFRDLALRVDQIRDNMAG

AncSZ = test: as above
EPHB2 = EPHB2 (UniProt P29323); test: as above
Chain of EPHB2 (P29323 whole entry, looked up): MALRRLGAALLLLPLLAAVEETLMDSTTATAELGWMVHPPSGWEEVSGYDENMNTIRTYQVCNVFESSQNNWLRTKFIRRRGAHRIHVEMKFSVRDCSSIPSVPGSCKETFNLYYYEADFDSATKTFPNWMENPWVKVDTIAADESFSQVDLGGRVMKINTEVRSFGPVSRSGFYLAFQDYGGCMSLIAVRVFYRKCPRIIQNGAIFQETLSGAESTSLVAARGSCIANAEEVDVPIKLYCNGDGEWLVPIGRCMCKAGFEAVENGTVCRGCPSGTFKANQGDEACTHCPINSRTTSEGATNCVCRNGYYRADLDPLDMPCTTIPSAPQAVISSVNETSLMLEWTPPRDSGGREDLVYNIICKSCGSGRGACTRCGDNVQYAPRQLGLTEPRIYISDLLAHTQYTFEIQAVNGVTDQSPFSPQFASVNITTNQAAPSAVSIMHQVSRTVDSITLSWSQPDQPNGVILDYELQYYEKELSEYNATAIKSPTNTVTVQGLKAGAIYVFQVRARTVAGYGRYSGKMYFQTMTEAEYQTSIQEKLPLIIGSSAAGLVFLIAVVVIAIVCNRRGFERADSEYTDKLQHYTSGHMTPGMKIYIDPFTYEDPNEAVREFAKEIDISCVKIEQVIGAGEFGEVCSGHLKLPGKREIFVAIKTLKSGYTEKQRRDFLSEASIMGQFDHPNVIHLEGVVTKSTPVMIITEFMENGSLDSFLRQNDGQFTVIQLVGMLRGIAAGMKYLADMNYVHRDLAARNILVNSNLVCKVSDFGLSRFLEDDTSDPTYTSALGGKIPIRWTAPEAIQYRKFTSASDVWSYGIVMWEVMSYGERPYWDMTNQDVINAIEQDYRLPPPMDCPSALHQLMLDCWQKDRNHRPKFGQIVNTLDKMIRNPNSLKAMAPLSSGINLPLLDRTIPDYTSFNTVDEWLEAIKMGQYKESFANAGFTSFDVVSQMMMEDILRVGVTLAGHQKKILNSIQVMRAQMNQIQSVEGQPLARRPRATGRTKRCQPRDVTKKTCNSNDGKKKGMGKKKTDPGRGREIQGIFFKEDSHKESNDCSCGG

EPHB1 = EPHB1 (UniProt P54762); test: as above
Chain of EPHB1 (P54762 whole entry, looked up): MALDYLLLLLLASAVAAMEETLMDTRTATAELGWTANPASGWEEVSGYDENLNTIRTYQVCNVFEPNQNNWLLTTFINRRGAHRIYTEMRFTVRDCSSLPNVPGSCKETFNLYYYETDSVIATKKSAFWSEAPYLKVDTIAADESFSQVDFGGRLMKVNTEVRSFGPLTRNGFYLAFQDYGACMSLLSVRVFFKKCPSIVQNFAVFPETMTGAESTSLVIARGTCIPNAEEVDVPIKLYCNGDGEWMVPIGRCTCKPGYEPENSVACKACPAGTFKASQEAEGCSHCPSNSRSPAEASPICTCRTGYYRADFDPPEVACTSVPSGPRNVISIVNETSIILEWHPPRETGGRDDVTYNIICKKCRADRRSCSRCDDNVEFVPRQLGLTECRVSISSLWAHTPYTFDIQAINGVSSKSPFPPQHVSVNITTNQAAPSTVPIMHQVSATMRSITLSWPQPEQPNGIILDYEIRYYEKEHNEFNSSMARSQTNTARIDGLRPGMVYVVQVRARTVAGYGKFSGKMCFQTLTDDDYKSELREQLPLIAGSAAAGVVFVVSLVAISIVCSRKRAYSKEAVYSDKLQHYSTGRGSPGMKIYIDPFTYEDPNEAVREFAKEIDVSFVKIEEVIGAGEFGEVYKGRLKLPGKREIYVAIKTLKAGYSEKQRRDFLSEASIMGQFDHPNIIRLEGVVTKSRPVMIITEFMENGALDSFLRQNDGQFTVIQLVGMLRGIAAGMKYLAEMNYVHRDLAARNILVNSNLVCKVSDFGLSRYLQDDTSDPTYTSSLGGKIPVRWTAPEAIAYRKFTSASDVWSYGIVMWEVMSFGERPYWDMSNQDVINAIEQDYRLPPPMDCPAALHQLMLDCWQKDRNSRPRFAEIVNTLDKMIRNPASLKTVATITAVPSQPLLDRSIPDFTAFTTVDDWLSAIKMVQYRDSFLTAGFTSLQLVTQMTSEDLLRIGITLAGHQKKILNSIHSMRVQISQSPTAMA

Hck = Hck (UniProt P08631); test: as above
Chain of Hck (P08631 whole entry, looked up): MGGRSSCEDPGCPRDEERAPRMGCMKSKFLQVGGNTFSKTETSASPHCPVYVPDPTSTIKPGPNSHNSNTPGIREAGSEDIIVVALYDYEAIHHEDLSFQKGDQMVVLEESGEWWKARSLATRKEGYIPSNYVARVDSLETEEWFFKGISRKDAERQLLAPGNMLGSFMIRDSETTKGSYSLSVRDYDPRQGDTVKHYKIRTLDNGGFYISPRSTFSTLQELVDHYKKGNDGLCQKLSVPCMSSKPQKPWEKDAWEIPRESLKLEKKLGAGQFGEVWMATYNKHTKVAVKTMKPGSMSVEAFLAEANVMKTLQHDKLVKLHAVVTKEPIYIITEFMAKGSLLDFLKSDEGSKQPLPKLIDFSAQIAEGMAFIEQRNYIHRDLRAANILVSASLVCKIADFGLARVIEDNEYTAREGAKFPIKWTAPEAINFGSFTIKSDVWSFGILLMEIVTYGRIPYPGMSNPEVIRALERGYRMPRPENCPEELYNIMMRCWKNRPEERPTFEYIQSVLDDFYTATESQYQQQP

Fyn = Fyn (UniProt P06241); test: as above
Chain of Fyn (P06241 whole entry, looked up): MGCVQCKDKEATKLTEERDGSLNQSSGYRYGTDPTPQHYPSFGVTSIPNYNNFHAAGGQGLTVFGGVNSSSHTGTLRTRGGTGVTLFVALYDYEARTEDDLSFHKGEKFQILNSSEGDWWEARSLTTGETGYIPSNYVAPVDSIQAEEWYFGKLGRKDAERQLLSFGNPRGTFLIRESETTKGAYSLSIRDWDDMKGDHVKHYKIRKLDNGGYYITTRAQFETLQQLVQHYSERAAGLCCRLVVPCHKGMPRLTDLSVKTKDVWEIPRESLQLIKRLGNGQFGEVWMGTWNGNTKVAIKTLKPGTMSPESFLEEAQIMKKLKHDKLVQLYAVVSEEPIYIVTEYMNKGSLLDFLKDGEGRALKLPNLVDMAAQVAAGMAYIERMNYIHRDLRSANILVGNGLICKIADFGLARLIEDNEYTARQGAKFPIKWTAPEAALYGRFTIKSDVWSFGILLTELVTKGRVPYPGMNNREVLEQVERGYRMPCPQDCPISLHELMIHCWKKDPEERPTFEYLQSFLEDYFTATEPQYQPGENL

Fes = Fes (UniProt P07332); test: as above
Chain of Fes (P07332 whole entry, looked up): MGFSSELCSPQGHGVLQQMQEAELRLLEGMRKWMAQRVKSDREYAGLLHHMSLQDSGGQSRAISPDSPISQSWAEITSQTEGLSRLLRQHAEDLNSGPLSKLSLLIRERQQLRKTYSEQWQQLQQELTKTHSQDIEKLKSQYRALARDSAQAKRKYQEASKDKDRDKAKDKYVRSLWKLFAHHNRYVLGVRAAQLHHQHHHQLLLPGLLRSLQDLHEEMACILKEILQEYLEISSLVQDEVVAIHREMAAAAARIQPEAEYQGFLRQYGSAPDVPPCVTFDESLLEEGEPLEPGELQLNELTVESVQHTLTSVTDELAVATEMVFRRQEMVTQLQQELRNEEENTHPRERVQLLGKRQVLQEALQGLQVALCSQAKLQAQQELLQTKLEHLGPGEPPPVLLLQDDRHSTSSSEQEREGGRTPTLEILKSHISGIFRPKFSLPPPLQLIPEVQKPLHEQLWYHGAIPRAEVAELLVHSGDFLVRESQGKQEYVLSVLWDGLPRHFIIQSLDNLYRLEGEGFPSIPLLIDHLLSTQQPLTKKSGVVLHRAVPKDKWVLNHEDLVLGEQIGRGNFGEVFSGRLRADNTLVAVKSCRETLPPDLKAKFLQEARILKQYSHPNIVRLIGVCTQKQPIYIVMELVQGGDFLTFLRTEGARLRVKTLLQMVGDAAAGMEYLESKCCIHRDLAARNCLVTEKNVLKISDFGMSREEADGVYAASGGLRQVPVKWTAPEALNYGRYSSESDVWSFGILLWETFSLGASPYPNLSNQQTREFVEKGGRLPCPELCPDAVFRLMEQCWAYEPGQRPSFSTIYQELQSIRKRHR

FGFR1 = FGFR1 (UniProt P11362); test: as above
Fer (mouse) = test: as above
c-Src = test: as above
Grb2 SH2 = Grb2 SH2 (UniProt P62993); test: SH2 binding enrichment of the phosphorylated peptide, bacterial display (enrichment ratio); higher = better substrate or ligand; peptides without Tyr show the background
c-Src SH2 = test: as above
SHP2-C SH2 = test: as above
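For SH2 binding enrichment of the phosphorylated peptide, bacterial display in this document: peptide library displayed on the E. coli surface as eCPX fusions, selected cells deep-sequenced, score is each peptide's frequency after selection divided by its frequency in the input.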
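For phosphorylation enrichment, bacterial display in this document: 11-residue human phosphosite peptides and single-mutation variants displayed on the E. coli surface, counted by deep sequencing, each peptide's frequency after selection divided by its frequency in the unselected input library; frequency after pTyr selection over input frequency; kinase dosed for 20-30% of maximal phosphorylation in three min.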

Sequence | phosphorylation enrichment (MERTK) | phosphorylation enrichment (c-Abl (mouse)) | phosphorylation enrichment (FGFR3) | phosphorylation enrichment (Jak2) | phosphorylation enrichment (AncSZ) | phosphorylation enrichment (EPHB2) | phosphorylation enrichment (EPHB1) | phosphorylation enrichment (Hck) | phosphorylation enrichment (Fyn) | phosphorylation enrichment (Fes) | phosphorylation enrichment (FGFR1) | phosphorylation enrichment (Fer (mouse)) | phosphorylation enrichment (c-Src) | SH2 binding enrichment (Grb2 SH2) | SH2 binding enrichment (c-Src SH2) | SH2 binding enrichment (SHP2-C SH2)
PGDGEYFTLQI [TP53_Y327_L323G] | 0.705 | 1.75 | 7.71 | 4.13 | 2.91 | 0.892 | 0.895 | 1.95 | 3.54 | 1.57 | 10.5 | 0.651 | 4.02 | 0.895 | 0.275 | 0.677
RSGNCYLDIRP [FBN1_Y1535] | 0.633 | 1.04 | 0.728 | 1.45 | 1.06 | 0.7 | 0.58 | 0.544 | 0.567 | 1.27 | 0.802 | 0.514 | 0.583 | 0.688 | 0.615 | 0.782
QTEAEYRFIYM [PTPN11_Y511_Q510E] | 0.641 | 1.26 | 3.09 | 1.51 | 1.55 | 0.65 | 1.09 | 0.886 | 0.828 | 1.86 | 4.4 | 1.11 | 0.878 | 0.7 | 0.423 | 0.553
IGEGTYGVVYK [CDK2_Y15] | 2.01 | 0.63 | 0.67 | 0.756 | 0.907 | 7.28 | 2.67 | 7.9 | 10.6 | 0.896 | 0.551 | 1.73 | 5.96 | 0.73 | 0.507 | 0.535
QEGPEYWDGNT [HLA-B_Y83_R86G] | 0.709 | 1.08 | 1.56 | 1.98 | 1.93 | 0.959 | 0.762 | 0.833 | 0.548 | 1.97 | 1.11 | 0.533 | 0.854 | 0.908 | 0.367 | 0.653
LTTEAYEWEPR [ELMOD3_Y61] | 0.724 | 0.831 | 1.06 | 1.16 | 1.69 | 1.24 | 1.11 | 0.943 | 1.1 | 1.89 | 1.08 | 1.07 | 1.31 | 0.744 | 0.823 | 0.64
LVMFIDAIFGM [SCN1A_Y1684_Y1684D] | 1.1 | 1.74 | 2.33 | 1.79 | 2.28 | 1.67 | 2 | 1.38 | 1.13 | 3.65 | 1.07 | 1.63 | 0.91 | 1.15 | 0.698 | 1.15
EEKKKYFDTKI [CASP5_Y103_YF] | 0.332 | 0.657 | 0.519 | 0.665 | 0.928 | 0.445 | 0.429 | 0.559 | 0.374 | 0.954 | 0.447 | 0.457 | 0.402 | 0.821 | 0.462 | 0.698
VMIFAYLLHRG [PTEN_Y138_C136Y_YF] | 0.325 | 0.781 | 0.422 | 0.739 | 0.807 | 0.392 | 0.447 | 0.406 | 0.352 | 0.828 | 0.383 | 0.378 | 0.415 | 1.59 | 0.837 | 1.52
TTKGSYSLYVR [HCK_Y180_S183Y] | 0.43 | 0.666 | 0.671 | 1.02 | 1.02 | 0.581 | 0.667 | 0.458 | 0.462 | 1.16 | 0.464 | 0.474 | 0.373 | 0.998 | 0.647 | 1.11
RRVEPYGENFN [APOA4_Y310] | 0.561 | 0.707 | 0.655 | 0.965 | 1.23 | 0.385 | 0.521 | 0.45 | 0.487 | 1.2 | 0.421 | 0.542 | 0.643 | 0.687 | 0.513 | 0.588
IVRSLYEDLED [VHL_Y185] | 0.424 | 0.68 | 0.73 | 1.01 | 1.19 | 0.573 | 0.584 | 0.564 | 0.509 | 1.08 | 0.505 | 1.17 | 0.393 | 0.875 | 7.79 | 1.03
NFRTIYVNANE [KCNH2_Y475_T474I] | 0.367 | 0.509 | 0.529 | 0.717 | 0.659 | 0.5 | 0.543 | 0.525 | 0.423 | 0.775 | 0.417 | 0.428 | 0.44 | 19 | 3.07 | 8.36
FGPPQYNIQFS [ERBB2IP_Y977_YF] | 0.311 | 0.641 | 0.508 | 0.741 | 0.768 | 0.44 | 0.524 | 0.405 | 0.364 | 0.779 | 0.447 | 0.342 | 0.395 | 0.907 | 0.592 | 0.806
PKAWNYELPAT [PROM1_Y34] | 0.59 | 0.735 | 0.574 | 0.894 | 1.23 | 0.997 | 0.761 | 0.597 | 0.822 | 0.972 | 0.582 | 0.72 | 0.414 | 0.996 | 0.851 | 0.631
RLAKTYETTLE [ALB_Y377] | 0.596 | 0.955 | 0.895 | 1.09 | 0.86 | 0.855 | 0.555 | 0.622 | 0.752 | 1.39 | 0.711 | 0.721 | 0.758 | 0.834 | 0.473 | 0.569
FLAVGDHKPHI [IDS_Y225_Y225D] | 0.271 | 0.365 | 0.35 | 0.41 | 0.431 | 0.422 | 0.375 | 0.379 | 0.433 | 0.462 | 0.384 | 0.197 | 0.327 | 0.824 | 0.478 | 0.857

Sequence | phosphorylation enrichment (MERTK) | phosphorylation enrichment (c-Abl (mouse)) | phosphorylation enrichment (FGFR3) | phosphorylation enrichment (Jak2) | phosphorylation enrichment (AncSZ) | phosphorylation enrichment (EPHB2) | phosphorylation enrichment (EPHB1) | phosphorylation enrichment (Hck) | phosphorylation enrichment (Fyn) | phosphorylation enrichment (Fes) | phosphorylation enrichment (FGFR1) | phosphorylation enrichment (Fer (mouse)) | phosphorylation enrichment (c-Src) | SH2 binding enrichment (Grb2 SH2) | SH2 binding enrichment (c-Src SH2) | SH2 binding enrichment (SHP2-C SH2)
RDEHGYISRCF [HSPB1_Y133_Q128R] | 0.565 | 1.23 | 1.17 | 1.53 | 1.49 | 1.15 | 0.789 | 0.755 | 0.825 | 1.65 | 0.722 | 0.734 | 0.675 | 0.717 | 0.45 | 0.455
DGTESYHTVSS [PLK1_Y462_L463H] | 0.299 | 0.552 | 0.872 | 0.52 | 0.569 | 0.514 | 0.342 | 0.436 | 0.433 | 0.682 | 0.558 | 0.348 | 0.423 | 0.769 | 1.61 | 0.755
LGIDRYHAIVF [NPSR1_Y147_S143G_YF] | 1.52 | 1.31 | 1.37 | 2.47 | 2.59 | 1.41 | 1.22 | 0.942 | 0.732 | 1.82 | 1.55 | 1.04 | 1.11 | 0.851 | 1.28 | 0.689
TLLERYGMIEI [ACSF3_Y355_T358I] | 0.489 | 0.802 | 0.644 | 1.02 | 0.798 | 0.535 | 0.606 | 0.465 | 0.525 | 1.06 | 0.515 | 0.632 | 0.472 | 0.748 | 0.983 | 0.884
DHYNQYEQQKM [CHD7_Y75] | 0.359 | 0.445 | 0.524 | 0.782 | 0.844 | 0.402 | 0.444 | 0.434 | 0.639 | 0.728 | 0.438 | 0.451 | 0.478 | 0.56 | 0.472 | 0.824
FDEFRYRSVIK [CFTR_Y517_YF] | 0.463 | 0.544 | 0.484 | 0.607 | 0.768 | 0.472 | 0.39 | 0.498 | 0.41 | 0.804 | 0.466 | 0.409 | 0.46 | 0.812 | 0.444 | 0.527
PLTKVYVVEGS [ZMPSTE24_Y253] | 0.418 | 0.617 | 0.73 | 0.526 | 0.814 | 0.538 | 0.487 | 0.441 | 0.494 | 0.952 | 0.494 | 0.567 | 0.554 | 0.841 | 0.529 | 0.743
QFKGKYLAKHN [CASK_Y712_D710G_YF] | 0.632 | 0.467 | 0.327 | 0.855 | 1.2 | 0.527 | 0.49 | 0.376 | 0.415 | 0.616 | 0.498 | 0.441 | 0.404 | 1.29 | 1.16 | 1.16
DLDPNYVVSSR [CKM_Y125_L127V] | 0.453 | 0.713 | 0.69 | 0.843 | 1.17 | 0.546 | 0.561 | 0.573 | 0.45 | 0.943 | 0.539 | 0.494 | 0.46 | 0.8 | 0.488 | 0.787
EAAFVYAISSA [WNT4_Y113] | 0.566 | 2.7 | 0.749 | 1.36 | 1.34 | 0.59 | 0.623 | 1.38 | 1.9 | 1.3 | 0.586 | 0.649 | 2.79 | 0.684 | 0.568 | 0.745
KDHPDYKFQAR [SOX10_Y171_P175A_YF] | 0.405 | 0.626 | 0.489 | 0.559 | 0.757 | 0.408 | 0.409 | 0.482 | 0.458 | 0.658 | 0.466 | 0.485 | 0.489 | 0.835 | 0.516 | 0.813
CTNIHYNYMCN [TP53_Y234_T231N] | 0.418 | 1.62 | 0.62 | 0.799 | 0.754 | 0.537 | 0.734 | 0.437 | 0.464 | 0.82 | 0.468 | 0.522 | 0.408 | 1.05 | 5.66 | 1.86
LPEENYQVLRF [ARHGAP1_Y365] | 0.802 | 1.18 | 2.17 | 1.44 | 1.43 | 1.41 | 4.13 | 2.82 | 0.768 | 1.39 | 2.81 | 2.13 | 1.32 | 1.53 | 0.548 | 0.784
ILCTVYAFKTR [GRM3_Y754] | 0.609 | 0.696 | 0.715 | 1.33 | 1.52 | 0.478 | 0.577 | 0.624 | 0.528 | 1.49 | 0.543 | 0.61 | 0.599 | 1.3 | 0.794 | 0.985
YCIDHYLGKEM [G6PD_Y202_R198C] | 0.64 | 0.611 | 0.558 | 0.75 | 0.892 | 0.567 | 0.499 | 0.694 | 0.503 | 0.827 | 0.567 | 0.952 | 0.606 | 0.981 | 1.01 | 1.05
IHKEFYDGLFP [BCR_Y561] | 0.823 | 0.864 | 0.853 | 1.06 | 1.08 | 0.743 | 0.802 | 1.17 | 0.57 | 1.27 | 0.606 | 0.699 | 0.878 | 0.946 | 0.913 | 0.77
